Patent US20220233706A1 (ANTIKOR BIOPHARMA, published 2022)
Read-outs that look alike come from different tables or passages of the source.

Assays:
HER2-Fc [1] = biological target: T1, HER2-Fc (UniProt P04626 23-652); experiment: ELISA on plates coated with 10 µg/ml HER2-Fc, detection anti-T7 peroxidase conjugate, absorption at 450 nm
T1 construct: Coated at 10 µg/ml on ELISA plates; also called HER2 antigen; immobilised HER2 target antigen (ELISA); not shown: Fc part
Protocol: (§1) The DAR was determined by AAA as before (Table 11A & B), this time following the release of the di-proline fragment to identify and quantify the P5-based drug. […] All proteins were detected using the C-terminal T7 Tag which was not expected to be chemically modified (no lysines present). 96-well Immunosorb ELISA plates were coated with 10 μg/ml HER2-Fc in PBS, followed by the test samples, anti-T7-peroxidase conjugate. Extensive PBS/tween-20 and PBS washes were in between each layer and detection was with BM-Blue substrate. […] The DARs were verified by AAA (Tables 11A and 11B).

HER2-Fc [2] = biological target: T1, HER2-Fc; experiment: ELISA, plates coated with 10 µg/ml HER2-Fc, anti-T7 peroxidase detection; unmodified scFv (TCT), ELISA
Protocol: as §1

[3] = biological target: T2, HER2 immobilised on a Biacore chip (UniProt P04626 23-652, limits assumed); experiment: Biacore SPR, HER2 amine-coupled to the chip
T2 construct: also called immobilised HER2 target antigen (Biacore SPR); HER2 chip

HER2-Fc [4] = biological target: T1, HER2-Fc; experiment: ELISA, plates coated with 10 µg/ml HER2-Fc, anti-T7 peroxidase detection
Protocol: (§2) All proteins were detected using the C-terminal T7 Tag which was not expected to be chemically modified (no lysines present). 96-well Immunosorb ELISA plates were coated with 10 μg/ml HER2-Fc in PBS, followed by the test samples, anti-T7 peroxidase conjugate. Extensive PBS washes were in between each layer and detection was with BM-Blue substrate.

HER2-Fc [5] = biological target: T1, HER2-Fc; experiment: ELISA on plates coated with 10 µg/ml HER2-Fc, detection anti-T7 peroxidase conjugate, absorption at 450 nm; remark: listed apart in the source
Protocol: as §2

HER2-Fc [6] = biological target: T1, HER2-Fc; experiment: ELISA, plates coated with 10 µg/ml HER2-Fc, anti-T7 peroxidase detection; scFv TCT-P5C5(1), 8 drugs loaded, ELISA
Protocol: as §1

[7] = biological target: T2, HER2 immobilised on a Biacore chip; experiment: Biacore SPR, HER2 amine-coupled to the chip; Auristatin-F-C5 conjugate, DAR 11.9
Protocol: (§3) A standard amine-coupling method was used to prepare all Biacore surfaces (CM5 or CM3), as follows. Flow cells were activated individually by injecting a freshly mixed solution of 0.2M EDC in 0.05 M NHS at 30 μl/min. […] Excess NHS ester was deactivated using a 1 M ethanolamine solution. […] The dissociation time was extended to 3600 s for the highest concentration. Surfaces were regenerated with 45 s injection of MgCl₂ […].

[8] = biological target: T2, HER2 immobilised on a Biacore chip; experiment: Biacore SPR, HER2 amine-coupled to the chip; DM1-dPEG12 conjugate, DAR 8
Protocol: as §3

[9] = biological target: T2, HER2 immobilised on a Biacore chip; experiment: Biacore SPR, HER2 amine-coupled to the chip; MMAE-PAB-Cit-Val-dPEG9 conjugate, DAR 8.6
Protocol: as §3

[10] = biological target: T2, HER2 immobilised on a Biacore chip; experiment: Biacore SPR, HER2 amine-coupled to the chip; DM1-dPEG12 conjugate, DAR 7
Protocol: as §3

Binder | EC50 (read off the curve) (HER2-Fc [1]) [nM] | Kd (HER2-Fc [1]) [nM] | koff [3] [s⁻¹] | kon [3] [M⁻¹ s⁻¹] | also measured
scFv (TCT1067)-Auristatin-F-C5 DAR 11.9 (scFv, Auristatin F-C5 on lysine residues; DAR 13.4 by AAA, 10.4 by MS, average 11.9, also called TCT1067-AF-C5 ADC 3) scFv: SGSGGSGQVQLVQSGAEVKKPGESLKISCKGSGYSFTSYWIAWVRQMPGKGLEYMGLIYPGDSDTKYSPSFQGQVTISVDKSVSTAYLQWSSLKPSDSAVYFCARHDVGYCTDRTCAAWPEWLGVWGQGTLVTVSSGGGGSGGGGSGGGGSQSVLTQPPSVSAAPGQKVTISCSGSSSNIGNNYVSWYQQLPGTAPKLLIYGHTNRPAGVPDRFSGSKSGTSASLAISGFRSEDEADYYCASWDYTLSGWVFGGGTKLTVLMASMTGGQQMG |  |  | 1.76e-05 | 21700 | Kd [7]: 0.81 nM
scFv (TCT1067)-DM1-dPEG12 DAR 8 (scFv, Maytansine DM1-dPEG12 (from compound 90) on lysine residues, DAR 8 by LC-MS, also called TCT1067-Maytansine-PEG(12) DM1 ADC 2; scFv (TCT1067)-DM1 DAR 8) scFv: SGSGGSGQVQLVQSGAEVKKPGESLKISCKGSGYSFTSYWIAWVRQMPGKGLEYMGLIYPGDSDTKYSPSFQGQVTISVDKSVSTAYLQWSSLKPSDSAVYFCARHDVGYCTDRTCAAWPEWLGVWGQGTLVTVSSGGGGSGGGGSGGGGSQSVLTQPPSVSAAPGQKVTISCSGSSSNIGNNYVSWYQQLPGTAPKLLIYGHTNRPAGVPDRFSGSKSGTSASLAISGFRSEDEADYYCASWDYTLSGWVFGGGTKLTVLMASMTGGQQMG |  |  | 3.28e-05 | 13200 | Kd [8]: 2.48 nM
scFv (TCT1067)-DM1-dPEG12 DAR 7 (scFv, Maytansine DM1-dPEG12 on lysine residues, 6-8 additions, average DAR 7 by LC-MS, also called TCT1067-Maytansine-PEG(12) DM1 ADC 1; compound 124) scFv: SGSGGSGQVQLVQSGAEVKKPGESLKISCKGSGYSFTSYWIAWVRQMPGKGLEYMGLIYPGDSDTKYSPSFQGQVTISVDKSVSTAYLQWSSLKPSDSAVYFCARHDVGYCTDRTCAAWPEWLGVWGQGTLVTVSSGGGGSGGGGSGGGGSQSVLTQPPSVSAAPGQKVTISCSGSSSNIGNNYVSWYQQLPGTAPKLLIYGHTNRPAGVPDRFSGSKSGTSASLAISGFRSEDEADYYCASWDYTLSGWVFGGGTKLTVLMASMTGGQQMG |  |  | 2.7e-05 | 19500 | Kd [10]: 1.39 nM

The next lines start with results.

EC50 (read off the curve) (HER2-Fc [1]) [nM] | Kd (HER2-Fc [1]) [nM] | koff [3] [s⁻¹] | kon [3] [M⁻¹ s⁻¹] | Binder | also measured
~7 | 6.97 | 0.00417 | 2.8e+06 | scFv (TCT) (scFv, Anti-HER2 C6.5 scFv with residual Ser, GSGGSG linker and C-terminal T7 tag; also called cleaved TCT; unmodified scFv (TCT)) scFv: SGSGGSGQVQLVQSGAEVKKPGESLKISCKGSGYSFTSYWIAWVRQMPGKGLEYMGLIYPGDSDTKYSPSFQGQVTISVDKSVSTAYLQWSSLKPSDSAVYFCARHDVGYCSSSNCAAWPEYFQHWGQGTLVTVSSGGGGSGGGGSGGGGSQSVLTQPPSVSAAPGQKVTISCSGSSSNIGNNYVSWYQQLPGTAPKLLIYGHTNRPAGVPDRFSGSKSGTSASLAISGFRSEDEADYYCAAWDDSLSGWVFGGGTKLTVLMASMTGGQQMG | Kd (HER2-Fc [2]): 7 nM; Kd [3]: 1.49 nM; Kd (HER2-Fc [4]): 2.5 nM; EC50 (read off the curve) (HER2-Fc [5]): 2 to 3 nM
10 to 20 | 13 |  |  | scFv TCT-P5C5(1) (DAR 8) (scFv, P5C5 (from P5C5-NHS, compound 6) on lysine residues, DAR 8.17 by AAA, also called scFv (TCT)-P5C5, DAR = 8; compound 71) scFv: SGSGGSGQVQLVQSGAEVKKPGESLKISCKGSGYSFTSYWIAWVRQMPGKGLEYMGLIYPGDSDTKYSPSFQGQVTISVDKSVSTAYLQWSSLKPSDSAVYFCARHDVGYCSSSNCAAWPEYFQHWGQGTLVTVSSGGGGSGGGGSGGGGSQSVLTQPPSVSAAPGQKVTISCSGSSSNIGNNYVSWYQQLPGTAPKLLIYGHTNRPAGVPDRFSGSKSGTSASLAISGFRSEDEADYYCAAWDDSLSGWVFGGGTKLTVLMASMTGGQQMG | Kd (HER2-Fc [6]): 13 nM
 |  | 2.23e-05 | 22100 | scFv (TCT1067)-MMAE-PAB-Cit-Val-dPEG9 conjugate, DAR 8.6 (scFv, MMAE-PAB-Cit-Val-dPEG9 (from compound 86) on lysine residues; DAR 9.6 by AAA, 7.5 by LC-MS, average 8.6, also called TCT1067-MMAE ADC1) scFv: SGSGGSGQVQLVQSGAEVKKPGESLKISCKGSGYSFTSYWIAWVRQMPGKGLEYMGLIYPGDSDTKYSPSFQGQVTISVDKSVSTAYLQWSSLKPSDSAVYFCARHDVGYCTDRTCAAWPEWLGVWGQGTLVTVSSGGGGSGGGGSGGGGSQSVLTQPPSVSAAPGQKVTISCSGSSSNIGNNYVSWYQQLPGTAPKLLIYGHTNRPAGVPDRFSGSKSGTSASLAISGFRSEDEADYYCASWDYTLSGWVFGGGTKLTVLMASMTGGQQMG | Kd [9]: 1 nM
